Experimental data: patent publication CN116425870A (UNIV SHAANXI NORMAL, dated 2023)

Biological target: T1, SARS-COV-2病毒N蛋白 (SARS-COV-2, UniProt P0DTC9 1-419)
T1 construct: also called 新型冠状病毒N蛋白; SARS-COV-2N蛋白
Test: ELISA, N protein coated 100 ng/well, supernatant of transfected Expi293F cells

B1: 31A8抗体重链31A8mG1 (heavy chain transfected alone) (other)
VH: EVQLQQSGPELVKPGASVKISCKTSGYTFTKYTMHWVKQSHGKSLEWIGGINPNNGGNSYNQKFKGKATLTVDKSSSTAYMELRSLTSEDSAVYYCATPDYWGQGTTLTVSS
B1: no binding.
